The values that follow come from patent US20060062761A1.

The first assay has as its target HLA-DR DRB1*0101 on fixed HOM-2 cells (human). Nature of the assay: competition. Conditions: modification not given.
For AVRKYFQRITLYLKE [40], the IC50 was 95 µM. Still for that read-out and setting: in the case of AQMRRISLFSCLKDR [7] it was 150 µM; in that of PLMKEDSILAVRKYF [37], 85 µM. Still for that read-out and setting: in the case of KEDSILAVRKYFQRI [38] it was greater than 500 µM; in that of IQGVGVTETPLMKED [34], greater than 500 µM.

QFQKAETIPVLHEMI [16] gave an IC50 of 350 µM. Same read-out and setting: in the case of RRISLFSCLKDRHDF [8] it was 180 µM. Same read-out and setting: in the case of AEIMRSFSLSTNLQE [49] it was 15 µM; in that of SILAVRKYFQRITLY [39], 100 µM. For VGVTETPLMKEDSIL [35], the IC50 was greater than 500 µM. Take VVRAEIMRSFSLSTN [48]: the IC50 worked out at 25 µM. This counts as double-digit micromolar. Same read-out and setting: in the case of TETPLMKEDSILAVR [36] it was 25 µM.

The target of a further assay is HLA-DR DRB1*0401 on fixed WT-51 cells (human). In words: competition. To be noted: modification not given.
With KDSSAAWDETLLDKF [24], the IC50 came out at 450 µM. The same measure, in the same setting: in the case of YTELYQQLNDLEACV [29] it was 5 µM; in that of FNLFSTKDSSAAWDE [22], greater than 500 µM; in that of QQIFNLFSTKDSSAA [21], 70 µM.

Another assay concerns the target HLA-DR DRB1*0701 on fixed MOU (MANN) cells (human). Nature of the assay: competition. To be noted: modification not given.
As to AVRKYFQRITLYLKE [40], the IC50 was determined as 70 µM. For PLMKEDSILAVRKYF [37], the half-inhibitory concentration (IC50) is greater than 500 µM. The same measure, in the same setting: in the case of HDFGFPQEEFGNQFQ [12] it was greater than 500 µM; in that of SPCAWEVVRAEIMRS [46], 8 µM. On the same count and under the same terms, in the case of KEDSILAVRKYFQRI [38] it was greater than 500 µM. The same measure, in the same setting: in the case of IQGVGVTETPLMKED [34] it was greater than 500 µM; in that of KKYSPCAWEVVRAEI [45], 200 µM; in that of TLYLKEKKYSPCAWE [43], greater than 500 µM.

Molecule FGNQFQKAETIPVLH [15] returned an IC50 of 25 µM.

Take LKEKKYSPCAWEVVR [44]: the IC50 was greater than 500 µM.

AEIMRSFSLSTNLQE [49] came in with an IC50 of 15 µM. This counts as double-digit micromolar.

SILAVRKYFQRITLY [39] showed a half-inhibitory concentration (IC50) of 60 µM.

In turn, VGVTETPLMKEDSIL [35] registered an IC50 greater than 500 µM.

As for QEEFGNQFQKAETIP [14], the IC50 is greater than 500 µM. On the same count and under the same terms, in the case of SCLKDRHDFGFPQEE [10] it was greater than 500 µM; in that of SLFSCLKDRHDFGFP [9], greater than 500 µM; in that of VVRAEIMRSFSLSTN [48], 7 µM. TETPLMKEDSILAVR [36] came in with an IC50 greater than 500 µM. With GFPQEEFGNQFQKAE [13], the IC50 was greater than 500 µM.

As for KDRHDFGFPQEEFGN [11], the IC50 was greater than 500 µM.

Broadly, the IC50 is the concentration at which inhibition is half-maximal.
